Measured values: US20120149875A1

Experiments:
[1] = target: Fc-Fusion Protein (human soluble TNFα receptor linked to the Fc component of human immunoglobulin G1) (human) [IgG part: P01857]; assay: frontal analysis with CHO supernatant feed, Z4 medium of low ligand density, residence time 6 min
[2] = target: Fc-Fusion Protein (human soluble TNFα receptor linked to the Fc component of human immunoglobulin G1) (human) [IgG part: P01857]; assay: frontal analysis with CHO supernatant feed, Z4 medium of low ligand density, residence time 2.4 min
[3] = target: Fc-Fusion Protein (human soluble TNFα receptor linked to the Fc component of human immunoglobulin G1) (human) [IgG part: P01857]; assay: frontal analysis with CHO supernatant feed, fractions analysed on HiTrap MabSelect SuRe, residence time 6 min
[4] = target: Fc-Fusion Protein (human soluble TNFα receptor linked to the Fc component of human immunoglobulin G1) (human) [IgG part: P01857]; assay: frontal analysis with CHO supernatant feed, fractions analysed on HiTrap MabSelect SuRe, residence time 2.4 min

“Z4, tetramer of alkaline stabilized protein A (SuRe ligand domain / Z domain), MabSelect SuRe (designed binder)” showed a DBC10% (dynamic binding capacity at 10% breakthrough) [1] of 9 mg/mL, a DBC10% (dynamic binding capacity at 10% breakthrough) [2] of 5 mg/mL and a DBC10% (dynamic binding capacity at 10% breakthrough) [3] of 10 mg/mL. The DBC10% (dynamic binding capacity at 10% breakthrough) [4] was 6 mg/mL.
